Data on 24 sequences can be found in the supplement of paper PMC10899765.

Settings in all cases: 20 nM; 72 h
The test system of series [1] is MCF10A. As to the kind of experiment: 5+ nucleoli phenotype percent effect (relative to siNT 0% and siKIF11 100%); higher = more cells with five or more nucleoli. Here is the method: (§1)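 After 72 h, cells were fixed and stained with Hoechst and anti-fibrillarin, and nucleoli per nucleus were counted with CellProfiler. Values are plate-adjusted percent effect for the one-nucleolus and 5+ nucleoli phenotypes, normalised to siNT (0%) and to the positive controls siNOL11 or siKIF11 (100%), as the mean of biological triplicates. Percent viability is the nuclei count relative to siNT.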

Series [2] concerns MCF10A. Put plainly: one-nucleolus phenotype percent effect (relative to siNT 0% and siNOL11 100%); higher = more cells with one nucleolus (ribosome biogenesis inhibition). Here is the method:
as §1

Series [3] concerns MCF10A. As to the kind of experiment: percent viability (nuclei count relative to siNT); higher = more viable cells. Here is the method:
as §1

Consider AAAGGUAAUUGUGGUUUCUGC [hsa-miR-548ag], for which, in the series with MCF10A [1], the “5+ nucleoli phenotype percent effect” value turned out to be 4.63%. In the series with MCF10A [2], the “one-nucleolus phenotype percent effect” value was -6.82%. Moreover, in the series on MCF10A [3], the percent viability was determined as 75.7%.
In the same order, the values of AAAGGUCAUUGUAAGGUUAAUGC [hsa-miR-3974] are -42%, 63.7% and 39.8%.
The corresponding values for AAAGGUGCUCAAAUUAGACAU [hsa-miR-4735-3p] are -26.8%, 43% and 21.4%.
The corresponding values for AAAGUAGCUGUACCAUUUGC [hsa-miR-562] are 57%, -28.9% and 83.9%.
With “AAAGUCUCGCUCUCUGCCCCUCA [hsa-miR-3184-3p]”, the “5+ nucleoli phenotype percent effect” value in the series on MCF10A [1] amounted to 41.1%. Moreover, in the series with MCF10A [2], the “one-nucleolus phenotype percent effect” value is -19.6%. Besides, in the series on MCF10A [3], the percent viability was determined as 172%.
On to “AAAGUGCAUCCUUUUAGAGGUU [hsa-miR-519b-3p]”, for which the “5+ nucleoli phenotype percent effect” value in the series with MCF10A [1] was found to be 75.9%. In the series on MCF10A [2], the “one-nucleolus phenotype percent effect” value is -24%. Besides, the percent viability in the series on MCF10A [3] was 104%.
In the same order, the values of “AAAGUGCAUCCUUUUAGAGUGU [hsa-miR-519a-3p]” are 44.1%, -15.2% and 160%.
In the same order, the values of “AAAGUGCAUCUUUUUAGAGGAU [hsa-miR-519c-3p]” are 110%, -25.5% and 119%.
For AAAGUGCUGCGACAUUUGAGCGU [hsa-miR-372], in the series on MCF10A [1], the “5+ nucleoli phenotype percent effect” value was 52.4%. Besides, the “one-nucleolus phenotype percent effect” value in the series with MCF10A [2] was -16.8%. The percent viability in the series on MCF10A [3] turned out to be 64.2%.
“AAAGUGCUUCCCUUUGGACUGU [hsa-miR-520a-3p]”: in the series on MCF10A [1], the “5+ nucleoli phenotype percent effect” value was determined as 40.6%. Moreover, the “one-nucleolus phenotype percent effect” value in the series with MCF10A [2] was -9.18%. Besides, in the series on MCF10A [3], the percent viability was 60.8%.
On to AAAGUGCUUCCUUUUAGAGGG [hsa-miR-520b], for which, in the series with MCF10A [1], the “5+ nucleoli phenotype percent effect” value was 70.5%. In addition, in the series on MCF10A [2], the “one-nucleolus phenotype percent effect” value is -19.2%. Besides, the percent viability in the series on MCF10A [3] was determined as 70.9%.
The corresponding values for “AAAGUGCUUCCUUUUAGAGGGU [hsa-miR-520c-3p]” are 44.6%, -14.7% and 74.6%.
In the same order, the values of AAAGUGCUUCCUUUUUGAGGG [hsa-miR-520e] are 57.7%, -14.9% and 84.4%.
The corresponding values for “AAAGUGCUUCUCUUUGGUGGGU [hsa-miR-520d-3p]” are 58.4%, -16.1% and 74.3%.
Consider “AAAGUUCUGAGACACUCCGACU [hsa-miR-148a-5p]”, for which the “5+ nucleoli phenotype percent effect” value in the series on MCF10A [1] came to 9.44%. Besides, the “one-nucleolus phenotype percent effect” value in the series on MCF10A [2] is -5.53%. The percent viability in the series on MCF10A [3] amounted to 89%.
In the same order, the values of “AAAUAUAUAUAUAUAUGUACGUAU [hsa-miR-1277-5p]” are 64.2%, -29.6% and 47.1%.
In the case of “AAAUAUGAUGAAACUCACAGCUGAG [hsa-miR-4517]”, the “5+ nucleoli phenotype percent effect” value in the series with MCF10A [1] amounted to 12.3%. In the series with MCF10A [2], the “one-nucleolus phenotype percent effect” value amounted to 0.779%. In the series on MCF10A [3], the percent viability stood at 24%.
The corresponding values for AAAUCUCUGCAGGCAAAUGUGA [hsa-miR-216b] are 44.2%, -16.2% and 97.3%.
In the same order, the values of AAAUGGGUGGUCUGAGGCAA [hsa-miR-4506] are -7.36%, 36.1% and 46.9%.
With “AAAUGUCACCUUUUUGAGAGGA [hsa-miR-513b-3p]”, the “5+ nucleoli phenotype percent effect” value in the series with MCF10A [1] is -25.5%. The “one-nucleolus phenotype percent effect” value with MCF10A [2] is -7.38%. Further, in the series with MCF10A [3], the percent viability turned out to be 94.2%.
AAAUUAUUGUACAUCGGAUGAG [hsa-miR-944]: the “5+ nucleoli phenotype percent effect” value with MCF10A [1] is -36.2%. In the series with MCF10A [2], the “one-nucleolus phenotype percent effect” value amounted to 9.85%. In addition, the percent viability with MCF10A [3] stood at 33.3%.
The corresponding values for “AAAUUCAUGUUCAAUCUAAACC [hsa-miR-4760-3p]” are 10%, -13.1% and 68.6%.
With “AACAACAAAAUCACUAGUCUUCCA [hsa-miR-3529-3p]”, the “5+ nucleoli phenotype percent effect” value with MCF10A [1] came to 0.722%. For the same sequence, in the series on MCF10A [2], the “one-nucleolus phenotype percent effect” value stood at 14.9%. Moreover, the percent viability with MCF10A [3] amounted to 44.1%.
The corresponding values for AACAAUAUCCUGGUGCUGAGUG [hsa-miR-338-5p] are -1.58%, -0.375% and 47.6%.
